Data published in the supplement of paper PMC10724198.
± gives the standard deviation of the averaged measurements.

system: Saccharomyces cerevisiae; test: protein stability index of tFT-peptide fusion (C-terminal peptide) (PSI (0-1 scale)); higher = more stable (slower turnover); conditions: genetic background: wild type; temperature: 30 C
Method: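 Multiplexed protein stability (MPS) profiling in S. cerevisiae. Random 12-aa peptides (tFT-X12 library) are fused to the C-terminus of a sfGFP-mCherry tandem fluorescent timer, after mCherry and a GGGS linker. Cells are FACS-sorted into 8 mCherry/sfGFP bins and deep-sequenced. The protein stability index (PSI) is the read-weighted bin average, scaled from 0 (unstable) to 1 (stable). Only peptides with >10 reads are reported; cells were grown at 30 °C in SC-His with glucose.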
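Further: PSI is a weighted mean of sequencing reads over stability bins, variants kept only with over 10 reads, mCherry proximal and sfGFP distal, peptide attached via GGGS linker.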

Row | Sequence | protein stability index
1 | FCGDDVCLTHFG | 0.729 ± 0.029
2 | FCLGSVIWERDS | 0.625 ± 0.076
3 | FCLLSCDTFSSS | 0.6318 ± 0.0042
4 | FCLPVFCVPSHF | 0.634 ± 0.11
5 | FCRKVFFALRRF | 0.612 ± 0.095
6 | FCSCSCEFVPRS | 0.618 ± 0.039
7 | FCSLLDSLVGGC | 0.745 ± 0.072
8 | FCSQNLQMNQLS | 0.6 ± 0.041
9 | FCVFSDVSRFSY | 0.701 ± 0.082
10 | FCVVGKGWKGEG | 0.626 ± 0.0098
11 | FCWLCRFADSPF | 0.733 ± 0.078
12 | FDDSNSRTGPVQ | 0.692 ± 0.11
13 | FDGRVTALRVRL | 0.724 ± 0.033
14 | FDITGAGLDSSF | 0.7904 ± 0.0053
15 | FDSSLFTVSQYH | 0.768 ± 0.084
16 | FDSYVNHRLNRD | 0.608 ± 0.057
17 | FDVAPTSRVNFL | 0.724 ± 0.06
18 | FERRGSSFWGGC | 0.7 ± 0.032
19 | FESGINWLLSDK | 0.672 ± 0.06
20 | FFACHDGYWCGC | 0.778 ± 0.036
21 | FFAGELGVYCLV | 0.596 ± 0.033
22 | FFAPSRLHHLSL | 0.772 ± 0.071
23 | FFFPLLLLSPPI | 0.535 ± 0.015
24 | FFGGAGGTEGLG | 0.689 ± 0.048
25 | FFMNGLWGLSVR | 0.612 ± 0.0092

Row | Sequence | protein stability index
26 | FFPARPPPPPPR | 0.769 ± 0.04
27 | FFPELSNLHPPS | 0.708 ± 0.017
28 | FFPFSLFPLPPS | 0.744 ± 0.066
29 | FFPPPSSFCLSL | 0.772 ± 0.069
30 | FFRSFVVGSVLV | 0.567 ± 0.0064
31 | FFSPSSVSVGVR | 0.65 ± 0.076
32 | FFSRSPVFSFDF | 0.8218 ± 0.0017
33 | FFSSSDRQLSNQ | 0.716 ± 0.041
34 | FFSSTVFLLFLP | 0.569 ± 0.025
35 | FFTPSKQSQAYC | 0.662 ± 0.027
36 | FFVIIPAKSWLG | 0.546 ± 0.03
37 | FFVRCTEWLGED | 0.6161 ± 0.0039
38 | FGAEWRGVLSGC | 0.773 ± 0.013
39 | FGARVWVGRVGG | 0.657 ± 0.069
40 | FGCCCGGGLLGV | 0.711 ± 0.027
41 | FGCRARYDLVLI | 0.641 ± 0.098
42 | FGFHSLSISFFM | 0.611 ± 0.035
43 | FGFLELTDPHGC | 0.576 ± 0.023
44 | FGGFVPSSQCLI | 0.712 ± 0.018
45 | FGGGGLAPSLQS | 0.602 ± 0.044
46 | FGGKLVTHGISY | 0.673 ± 0.054
47 | FGGTAVAGLFDL | 0.725 ± 0.061
48 | FGIRGMTSVGSP | 0.675 ± 0.088
49 | FGKWSWGECEGS | 0.69 ± 0.032
50 | FGLPFPSNIVSG | 0.757 ± 0.024

Row | Sequence | protein stability index
51 | FGLPGGVTVVTW | 0.757 ± 0.14
52 | FGQSKFAMKGVR | 0.708 ± 0.0086
53 | FGRAGAGERRGA | 0.722 ± 0.28
54 | FGRSGDGVGGLA | 0.667 ± 0.026
55 | FGRVRFCFRMRS | 0.671 ± 0.025
56 | FGSSLVVSMVFD | 0.704 ± 0.015
57 | FGTATPPPTLPP | 0.727 ± 0.02
58 | FGVLGCGFLLSL | 0.688 ± 0.018
59 | FGVVCIGVLGGV | 0.5361 ± 0.0014
60 | FGVVLEGAGWGG | 0.73742 ± 0.00056
61 | FGYAGGSRVLGS | 0.68 ± 0.0095
62 | FGYCFYRFHLQR | 0.666 ± 0.049
63 | FGYGLPFPERVE | 0.781 ± 0.046
64 | FHPTCAPLPCPP | 0.663 ± 0.038
65 | FHPVLPMSFRHV | 0.666 ± 0.029
66 | FHSRGVASPQPP | 0.682 ± 0.018
67 | FHTLCLGPCTVI | 0.675 ± 0.035
68 | FISVFALWDVFL | 0.7 ± 0.01
69 | FISYFRFDRFGS | 0.699 ± 0.029
70 | FKVVLGRLGVRA | 0.53638 ± 6.4e-06
71 | FLAPPPDVGQLV | 0.692 ± 0.038
72 | FLCNSVAGSLCI | 0.643 ± 0.022
73 | FLCSLAPHRPLL | 0.704 ± 0.033
74 | FLFHAIGTCRLC | 0.671 ± 0.015
75 | FLFLTCPFSFSF | 0.633 ± 0.018

Row | Sequence | protein stability index
76 | FLFVVSFGGAVA | 0.512 ± 0.0061
77 | FLGGDVVGVFVG | 0.658 ± 0.059
78 | FLISLPLPAPLP | 0.679 ± 0.013
79 | FLLCLWIFFFGS | 0.482 ± 0.028
80 | FLLFIRGFSGCR | 0.624 ± 0.018
81 | FLLVCLNDVLRP | 0.588 ± 0.062
82 | FLPLPRPRLLLP | 0.617 ± 0.0076
83 | FLPPPPTPSPPY | 0.723 ± 0.043
84 | FLPPPPVLPSLP | 0.697 ± 0.024
85 | FLPTALTQPLIT | 0.624 ± 0.028
86 | FLQIPVQILPDP | 0.705 ± 0.027
87 | FLRLSPQFASFP | 0.677 ± 0.083
88 | FLSWSLPCITFR | 0.571 ± 0.051
89 | FLTCTTSLPFVP | 0.728 ± 0.13
90 | FLVSPFTLFPFS | 0.754 ± 0.12
91 | FMHCLLAQFAGL | 0.705 ± 0.11
92 | FNSFPPSPSLRP | 0.729 ± 0.012
93 | FNVSCLRPNMGE | 0.712 ± 0.044
94 | FPATSTCTFALY | 0.665 ± 0.0012
95 | FPCVAVFVESNR | 0.647 ± 0.049
96 | FPFSSFSGRCVD | 0.6697 ± 0.0042
97 | FPHRHAPYPSAI | 0.7 ± 0.035
98 | FPLIFALFPTFF | 0.603 ± 0.0067
